We go through 22 sequences from the DeepSol protein solubility set.

A short description of the data set: soluble on expression in E. coli; label from the status in PepcDB or PDB records.
Take “MAHHHHHHMSSPFFGEQRKTRHNRSCSSCDSLPRYAASPPCHPQYAKVDRAAPSVSSPTFSSVPPSPKFPALCMHAMSHTNSTVPSSKLPFSNSVTGNGAALIGTLASFDSEAPRGRPASVAEDGAASGSSSGLSRAAVLMSGRGDASPPFSPQPSGSVLAVFCPLTSKAWQSGTLRDGIAFDVDTTSKVSTISPQTGLQSPLLFSSGWSQQSVSAAAQGTPPSFMGTPGQSLISAGAEGDDAEDTPHSCGAMYSPNHSVSLLPAPKVFVSVYPVQSPEPFATKFTGSPVFEVSLTTPPSIRAPQTGAARGAGATPAPSSRLPSESLEQYSLLRSPILHSLTPLSISPSAPLSPGFGCITGTEPMQSRLSRHRLATSAGSEQLPVRTSNDMRSRNAAVASPPPAAVPSVNSNHESLSDRLVSPARRSYRCPLPSSNEASLSSFFAVDDAGLHANLSMTQASEEDAAHRAASATLPRVCSSKDTEAEEGVAAALAPDTTDDPFEAFWDISPAAQWGGSVTEMLPRITTSSAPFETGSASRSVTAFASGTHEKDSHSSEEFNQNNRLSCVSMERHRNTILHRPSAAQQRNTILHRPSVVQQRNSVNRSVDTQRTTSKTMTLQQRQRRFSLQQEDSIEIKRRSYA”: the “soluble on expression in E. coli” value is on record as “not soluble”.

Consider “MGFRLGIVGLPNVGKSTLFNALTKTMKAQAANYPFCTIEPNVGVVEVPDERLYKLAEIEKSQKITPTFIEFVDIAGLVKGASKGEGLGNQFLSHIREVDAVAMVLRAFEDENIVHVEGSVDPVRDKEIVEIELIAKDLESVNRRIEKVQKVAKGGDKKAREEMEHLNALKEILENLEPIRKYADKLPPETLEYAKKTLFLLTVKPVMYIANISEKDLPEGEGNPHVERIKEMANQENAPVVVISAELEAQLAGLSEEEQKEMLEAYGLKEPGLNKVIRTGYRLLDLITFFTAGEREARAWTVKRGTKAPQAAGKIHSDMERGFIAAEVISYEDLIKAGSWAKAKEQGLIRLEGKDYEIQDGDVVYFRFNV”, for which the “soluble on expression in E. coli” value is “soluble”.

Consider “RYRAHCDAIALCAPMFGIIIRLPDWMVRHILDWAEGHQRIREEYAIGTGRWRALPFAVNVLTHSRQRYRRNLRFYADEPRLQVGGPTWHWVREGMLAGDEVLANVEKDTAPTLLLQAEEERVVDNLMHDRYCELRAAAGHPCEGGKPLVIEGAYHEILFEKDAMRSVALNAIVEFFNRHT”, for which the “soluble on expression in E. coli” value is reported as “not soluble”.

“MDELMFFRGMAPDPTSYDRVFKFLIFGGKSVGKKTLLRSFCTEGDNESIWTSLTVDDEKVLIEATVSQKWEEGMSKEHDAIALVFSTTDVYSFEYTLELYNEIQKSTERIPLVFIENKIDIVEDSQMDKGLVEGEMRKKHKRLYRVSALKEFNVMHPFAYLIEKLTRQKKDLNANESVSENSLRL”: the “soluble on expression in E. coli” value is “not soluble”.

For “QVQLVESGGNLVQPGGSLRLSCAASGFTFGSFSMSWVRQAPGGGLEWVAGLSARSSLTHYADSVKGRFTISRDNAKNSVYLQMNSLRVEDTAVYYCARRSYDSSGYWGHFYSYMDVWGQGTLVTVS”, the “soluble on expression in E. coli” value is on record as “soluble”.

For the sequence “MPKSKSQKNKLRPRDSKGRFTPLAKAKRTVVSRSRSRSRSASRGARQSRSVGRPMSRRNSVRSISTHTAKSPSLVLVISGSPSPRRRRPSTRRSSSRRSVVRSVSRGSKGRRSSSRGSVYGRTGRSRSSKRSRSRSRPRTRSGSRSSSRSRSGSRRSSRRRSRHRSSSKARGRRASTAKKTPAKRRSRSRSQQKVKRSMSRKG”, the “soluble on expression in E. coli” value was “soluble”.

“SMITIKFDLNRYSCSWGAGGAFGGNRGLRPIPPEKGIFPLDHLHECDAEKKEYLGCLKSSAHKSEQCRHLSKKYLQCRMAKNLMAKQDMAELGFSGVKELDSTEDKNTESIEH”: the “soluble on expression in E. coli” value is recorded as “soluble”.

In the case of “NMRQVLKTDRLVLEPQSMARFDQWFAMERQRDEAGHRDLTEDQAWLRLCARQGMWDAYACGFYYLLDPVSGEMRGEAGFQFRRRGFGPGFDNHPEAAWAVASAHQGRGLAAEAMQALLAHHDRSSGRQRVVALIARSNLPSLRLAERLG”, the “soluble on expression in E. coli” value is listed as “not soluble”.

With “MGSDKIHHHHHHMSKIDELVFTPKQQDTITFPFQNVTLEVNEGTPRSGKTTADIFKMAYIYSISEDQNHLVTAYNQEQAFRLFMDGDGFGLMHIFGNLAEMKHDEHGDHLLIHSPNGPKKIYYKGGGKINSVGAITGMSLGTVTFLEINLLHKDFIEECFRRTFAAKNRFHLAELNPPAPNHPVLEIFSQYEKSGRYKWRHWTAKDNPALSDERKQEIYNEVKHSAYLLQRDWYGKRVLPAGIIYETFDVEANQIKKMQGHPIEMVFFGDGGQQDATVCECYVITEHEAEGGYTYNLNQVATYYHSGRDTGQVKAGSTYAIEIKQFIQWCMKEYEVPVNEPVFIDPACRWLREELEKVGVDTAGADNNAHDVTGKAQGIEVGIERMQSLLSERRYLLVEQPNDQYDHYSWLQEIGMYVRDENSGKPVDKNNHAMDTSRYATNYFYRNYEDI”, the “soluble on expression in E. coli” value is on record as “not soluble”.

Consider “MEDEIRKAAEILAKSKHAVVFTGAGISAESGIPTFRGEDGLWRKYDPEEVASISGFKRNPRAFWEFSMEMKDKLFAEPNPAHYAIAELERMGIVKAVITQNIDMLHQRAGSRRVLELHGSMDKLDCLDCHETYDWSEFVEDFNKGEIPRCRKCGSYYVKPRVVLFGEPLPQRTLFEAIEEAKHCDAFMVVGSSLVVYPAAELPYIAKKAGAKMIIVNAEPTMADPIFDVKIIGKAGEVLPKIVEEVKRLRSEK”, for which the “soluble on expression in E. coli” value is “soluble”.

Turning to “MGSDKIHHHHHHSTPTEFKRPSLKVLFGSFVGEYPGIIAQEKGFFKAQGVDVELIHKRYIQLEQANFSAGKYDGMTSSLGNLIILSAINLDIQGVIVIDESTGADVVVAQPQIKTVADLKGKKLGANLGGFSELFITEMLKTNNLNSNDVNLVRLEALKIPQNLKKNFIQAGHTWEPYLSEAMKIGGNILFTSKQTPGLILDLMIFRGDVIRDRPGDIRAFVQGWLQASEYWKENVQEGNTIISKALKIPSNTISLEGISLTSLDENQNLFQFSNPNSIDKIAKVYADFFIRAGNLTRIPELKSLFNSSFLNPAS”, the “soluble on expression in E. coli” value was “not soluble”.

Take “GAMGNNLVETTCKNTPNYQLCLKTLLSDKRSATGDITTLALIMVDAIKAKANQAAVTISKLRHSNPPAAWKGPLKNCAFSYKVILTASLPEAIEALTKGDPKFAEDGMVGSSGDAQECEEYFKGSKSPFSALNIAVHELSDVGRAIVRNLL”: the “soluble on expression in E. coli” value is reported as “soluble”.

Take “EQKVEAFNIQYKSRTSFKVQVKLNAQGKYQKSQVQSYLQQIGLNDGDLKQESGTLSADLIFTYTVPESNLFSRKNFDTLMKKINFNTTLKIDMVGKDEIMKKILQSTTFTNNLSSQTFQDQSIDLLPYLLYS”: the “soluble on expression in E. coli” value is “not soluble”.

As to “MGHHHHHHSHMSSMQRRAFVALGLMAMLAACSPAKKEDAAAGQTPIKLATDWRAQAELGGYYQALATGEYKKRGLDVTLIQGGPAVNVPQLLATGAVDVGVGSNSFIIMNLAKENAPVKAVAAFMQKDPQVLIAHPDQGINGIADMKGRPILLSDASVTAFWVWLKAKYGFTDDQVRKYNYSSAPFLADKRVVQQGYATSEPYLIEKEGKIKPAVFLLADSGYPAYASFALVPDSLIAKNPAAVQAFVEATAAGWTSYLYGDPKPGDAAILKDNPEMTQDVLDQAREKMRSYGIVSANGGRGDIGQMTDARWAEFFKVASEQGVYPADMDYKKAYTLQFLPKGP”, the “soluble on expression in E. coli” value was “not soluble”.

On to “MTETSTVSIASSAIVCVEADIKGEVIIKEGCVVHPFVVFDATKGPIYVGENNIFEEYAVIRNNSDGQPMIIGDWNIFQVHSKSSAKYVGSRNVIGVHAVLEDGCSVSDDCSVGAKCTVFSHQNLEPSVSVYAATNLSRTTKTPNMTSPHQIEFLRKILPSYHHLYGKKKAVATASASAAQ”, for which the “soluble on expression in E. coli” value is reported as “not soluble”.

Take “DSMADITACPGTDTCNLGISSSTGLSVEIEKMLLEEFPDTVFNKNIKIKISGCMNACGQHTIGNIGFHGMSIKNGTNVLPAMQVMLGGGLEPDGTGTIADKILKLPTRRCVEAVREILTDYDTNATEGEYFNDYYRRQVAAEKMYFYKLLKPLSDLETLTELDYIDL”: the “soluble on expression in E. coli” value is listed as “not soluble”.

Consider “MAKIAAIFQLLDKNVTVSSHRLELLSPARDAAIAREAILHGADAVYIGGPGFGARHNASNSLKDIAELVPFAHRYGAKIFVTLNTILHDDELEPAQRLITDLYQTGVDALIVQDMGILELDIPPIELHASTQCDIRTVEKAKFLSDVGFTQIVLARELNLDQIRAIHQATDATIEFFIHGALCVAYSGQCYISHAQTGRSANRGDCSQACRLPYTLKDDQGRVVSYEKHLLSMKDNDQTANLGALIDAGVRSFKIEGRYKDMSYVKNITAHYRQMLDAIIEERGDLARASSGRTEHFFVPSTEKTFHRGSTDYFVNARKGDIGAFDSPKFIGLPVGEVVKVAKDHLDVAVTEPLANGDGLNVLIKREVVGFRANTVEKTGENQYRVWPNEMPADLHKIRPHHPLNRNLDHNWQQALTKTSSERRVAVDIELGGWQEQLILTLTSEEGVSITHTLDGQFDEANNAEKAMNNLKDGLAKLGQTLYYARDVQINLPGALFVPNSLLNQFRREAADMLDAARLASYQRGSRKPVADPAPVYPQTHLSFLANVYNQKAREFYHRYGVQLIDAAYEAHEEKGEVPVMITKHCLRFAFNLCPKQAKGNIKSWKATPMQLVNGDEVLTLKFDCRPCEMHVIGKIKNHILKMPLPGSVVASVSPDELLKTLPKRKG”, for which the “soluble on expression in E. coli” value was “not soluble”.

“MVFSGPASPGLTLAPLRRGGIDPCYRVDAAGAIWRTSLMPSGPVTARITRAATDAADCQAWGEGADEFIDRLPALLGVDDDASDFAPAEPTIAKARRQVPHLRLGRTGRMLEALIPAIIEQRVYGLDAWRAWRALVTKFGTPAPGPAPDGMRVVPSAEVWRRIPSWEFHRANVDPGRARTIVMCAQRADSLERLTHERAAVTLRSLPGVGEWTAAETMQRVFGDADALSAGDYHLATLVGQALTGEPVDDAGMVELLEPMRPHRHRAVRLLEASGMFVYRRRGARQAIPKLRTL”: the “soluble on expression in E. coli” value was “not soluble”.

With “MVKRAKLINDVVELIPIFHLLSTETYRKVYNALLEGWYTARELEEMIGEGYRDALRILKNAGMLEAKWRMPSDPGGKPEKEYHVSYTHVSANFYISLKDLNKVLEVVFMSDDEVEEYVREIIKEIEAGRTSVTYITKDLNLDPLFLRAIAKRSLKLNLKGQLIELAKDEEI”, the “soluble on expression in E. coli” value is recorded as “not soluble”.

As to “GPGSMATGTSPPSLVTVPLLRAALLLRWRLLSLQFDGDSNMCVLAEDAADGLPRGTRLEMYGSNVQLVRQLSGAGEALLQPSVIGEVTATLEGALTDDTTERRGRQIVAVLSPPHLSSSLGGPEFKGNEDVEVIAQWTLSRKRVENVQRVTDTTKRDGVKNEEPPPLMENGIVFPSPRFAGLRVLRAARHSFALLLENELRERTGESEVGKVGPLAVLDVSELDCTFSRVAVQMAVERGLVLEQHMHVNFVPLTPAATATADETVRSLLRLVAHPTRGAHLDPLRPLQARCFKLGCCTFCSKGRGSAANEGSKKDEASLVSRLAGVISKIHSNGTLLVNLVGDGINHEELRQGAEMHLVEALLRADRCGVVIDEVLPAADTRGTAISFVVSLC”, the “soluble on expression in E. coli” value is “not soluble”.

For the sequence “MGSDKIHHHHHHMTVCVWCQRPLKTSLTLAQFWRWGPVTPPDICVPCQGRLSPISGQHCPQCGRQQTTCQLCQDCQRWDQPLVNRALYCYDAEMKAYMQQYKFQGDYALQRVLQRALATALTQLTYDILVPIPIAQSTWQSRGFNQVTGWLTGQAYYQVLQVIDQDKATPQSAKNRAQRFLLTPQPFTLAPQAKDLCHGQRVLLLDDVYTTGRTLRHAATQINLTGAKAVTSLTLAR”, the “soluble on expression in E. coli” value is on record as “not soluble”.

Consider “MKLDIKKDLKNIAWHCTMCGGCCDSPSVSKKDVANIAGFLKIPFDEVVKKYLVNFDGMTGRLKTSKEKCIFLDENNKCKIYRVRPIICRLRPYSVQIKDQNLVLTYDGWFLENCKGLFMGDLDPDEEYYKHAETVLKYLGEEENTPEEFFEKAKKRLKKSKKLEHHHHHH”, for which the “soluble on expression in E. coli” value is recorded as “soluble”.
